Laboratory results from the nanobody polyreactivity screen of Harvey et al. (2022).

Assay: yeast display, Sf9 membrane polyspecificity reagent, FACS + sequencing; frameworks hold sequencing errors
How it was run: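 Polyreactivity labels are assigned by the sorting gate from which each nanobody was recovered. The gates were low and high (top ~1%), set on anti-HA fluorescence for expression and streptavidin fluorescence for reagent binding. Before sorting, galactose-induced (36–48 hours) yeast display cells were stained for 1 hour at 4 °C with 10% biotinylated, detergent-solubilized Sf9 membrane reagent.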

Row | Sequence | polyreactivity (PSR sort gate)
1 | QVQLVDSGGGIVQAGGSLRLSCPASGITFPKYAMGWYRQAPGKERELVAAITKSSGSTYYADSVKGRFTISRDNAKNTVYLQMKSLKPEDTAVYYCAARRVNHIRSYSYVSNYGYWGQGTQVTVSS | high polyreactivity
2 | QVQLVESGGGLVQAGGSLRLSCAASGRIFSEYAMGWYRQAPGKERELVAAISGTGGRTYYADSVKGRFTISRDNAKNTVYLQMNSLKPEDTAVYYCAARTGQGPLYNHWGQGTQVTVSS | high polyreactivity
3 | QVQLVESGGGLVQAGGSLRLSCAASGSIFRYYAMGWYRQAPGKERELVATITSGGSTSYADSVKGRFTISRDNAKNTVYLQMNSLKPEDTAVYYCAKRSRHNKYYYWGQGTQVTVSS | high polyreactivity
4 | QVQLVESGGGLVQAGGSIRLSCAASGSTFWPYAMGWYRQAPGKERELVAAITTSGGITYYADSVKGRFTISRDKAKITVYLQMNSVKPEDTAVYYCAADLSYHGYGYWGQGTQVTVSS | low polyreactivity
5 | QVQLVESGGGLVQAGGSLRLSCAASGFIFPYYDMGWYRQAPGTERELVAAISWSGDSTYYADSVKGRFTISRDNAKNTVYLQMNSLKPEDTAVYYCNVRARYQRYYYWGQGTQVTVSS | high polyreactivity
6 | QVQIVESGGGLVQAGCSLRLSCAASGHTFTIKAMGWYRQAPGKERELVAAITFSGGRTYYADSVKGRFTISRDNAKNTVYLQMNSLKPEDTAVYYFAADNPGGSIYDYWGQGTQVNVSS | low polyreactivity
7 | QVQLVESGGGLVQAGGRLRLSCAASGYTFGVYDMGWYRQAPGKERELVAAISGSTYYADSVKGRFTISRDNAKNTVYLQMNSLKPEDTAVYYCAAESYFFSPRTREKFDYWGQGTQVTVSS | low polyreactivity
8 | QVQLVESGGGLVQAGGSLRLSCAASGSIFCSYAMGWYRPAPGKERELVAAITQRGGRTYYADSVKGRFTISRENAKNTVYLQMNSLKPEDTAVYYCAAKNRISRPSPYDYWGQGTQVTVSS | high polyreactivity
9 | QVQLEESGGGLVQAGGSLRLSCAASGSIFGYNAMGWYRQAPGKERELVAAINVDGGRTYYADSVKGRFTISRDNAKNTVYLQMNSLTPEDTAVFYCAAAYRLQVGRREYWGQGTQVTVSS | high polyreactivity
10 | QVQLEDSGGGLVQAGGRLRLSCAASGSIFFSYAMGWYRQAPGTERELVAGINWSGGSTYADCVKGRFTISRDNAKNTVYLQMNSQKPEDTAVYYCAAKYYSERSRYHYWGLGTQVTVSS | low polyreactivity
11 | QGQLVESGGGLVQAGGSLRISCAASGRIYRINAMGWYRQAPGKERELVANITSGGGSTYADSVKGRFTISRDNAKNTVYLQMNSRKPEDTAVYYCAARSRIGRYTYDYWGQGTQVTVSS | high polyreactivity
12 | QVQRVESGGGLFQAGRSLRLSCAASGSTIRRYAMGWYRQAPGKERELVAAMSRGGNTNYADSVKGRFTISRDNATNTVYLQMNCLKPEDTAVYYCAAKLYGGWYRDFAACGMDYWGQGTQVTVCS | high polyreactivity
13 | QDQLVESGGGLVQAGGSLRLSCAASGSTFRRYDMGWYRQAPGKERELVAAISHRTGRTSYADSVKGRFTISRDNAKNTVYLQMNSLKTEDTAVYYCAADHTYYRQGYDYWGQGTQVTVSS | high polyreactivity
14 | QVQLVESGGGLVLAGGSLSLTCAASGRTCWYYTMGWYRHAPGKARELVAAISSGGRTNYADSVKGRFTISRDNATNTVFLQMNSLKPEDTAVYYCATSRYYKYVERDYWGQGTQVTVSS | high polyreactivity
15 | QVQLVESGGGLVQAGGSLRLSCAASGRIFYVYSMGWYRQAPGKDRELVADISRGGSTNYADSVKGRFTISRDNAKNTVYLQMNSLKPEDTAVYYCNTDGLWSAEYDYWGQGTQVTVSS | low polyreactivity
16 | QVQLVESGGGLVQAGGSLRLSCAASGSIFSTNAMGCYIQAPGKERELVAVITGIGGITYYADSVKGRFTISRDNAKNTVYVQMNSLKPEDTAVYYCAADPISEFYWGVKDRYDYWGQGTQVTVST | low polyreactivity

Row | Sequence | polyreactivity (PSR sort gate)
17 | QVQLEESGGGLVQAGGSLRLSCAASGFIFGRNAMGWYRQAPGKERELVAAITRSGGSTYYADSVKGRFTISRDNAKNTVYLQMNSLKPEDTAVYYCAKGVFTWGVFRVGIRDDYWGQGTQVTVSS | high polyreactivity
18 | QVQLVESGGGLVQAVGSLRLSCAASGSIYGYAMGWYIQAPGKERELVAAISGRGGRTYYADSVKGRFTISRDNAKNTVYLQMNSLKPEDTAVYYCNFQWRYPYHYTVDYWGQGTQVTVSS | high polyreactivity
19 | QVQLVESGGGLVQAGGSLSISCAASGSIFLAYDMGWYRPAPGKARELVAAITAGTGSTYYADSVKGRFTISRDNAKNTVYLQMTSLKPDDTAVYYCAAELWGGTYGEYEYWGQGTQVTVSS | low polyreactivity
20 | QVQLLESGGGLVQAGGSLRLSCAATGRIFFYGMGWYRQAPGNETELVATITSVSNTYYADSVKGRFTISRDNAKNTGYLLMNSLKPEDTAVYYCAARPDRYRYRYGYWGQGTQVTVSS | high polyreactivity
21 | QVQLVESGGGLVQAGGSLRLSCAASGFIFWGNTMGWYRQAPGKERELVAAISSSGGRTYYADSVKGRFTISRDNAKNTVYLQMNSLKPEDTAVYYCAKVRRSDYDSDYWGQGTQVTVSS | high polyreactivity
22 | QVQLVESGGCLVQAGGSLRLSGAASGRTQVPYAMGWSRQAHGNERELVASISSGGSTNYADSVKGRFTISRDNAKNTVYLQMNSLKPEDTAVYYCNAEPIGSEVDYWGQGTQVTVAS | low polyreactivity
23 | QDQLVESGGGLVQAGGSLRLSCAASGYIFLRNAMGWYRQAPGKERELVATISRTGRTNYADSVKGRFTISRDNAKNTVFLHMNSLKPEDTAVYYCAAASVFGRIRLWYDYWGQGTQVTVSS | high polyreactivity
24 | QVPLVESGGGLVQAGGSLRLSCAASGRISGYYDMGWYRQAPGKERELVATITSDGGTNYADSVKGRFTISRDNAKNTVYLQMNSLKPEDTAVYYCAAYGWYTKWHFAFGYWGQGTQVTVSS | low polyreactivity
25 | QVQLVESGGGLVQAGGSLRLTCAASGAIFEYYSMSWYIQAPGKERELVAAISSGGPTYYADSVKGRFTISRDNAKNTVYLQMNSLKPEDTAVYYCNADLWYPDYEYWGQGTQVNVSS | low polyreactivity
26 | QVQLVESGGGLVQAGGRLRLSCAASGSTFWGYTMGWYRQAPGKERELVAAISTIGGSTYYADSVKGRFTISRDNAKNTVYLQMNSLKTEDTAVYYCAAYKGKHYKEGYWGQGTQVTVSS | low polyreactivity
27 | QVQLVESGGGLVHAGGSLRLSCSASGIIFYRYAMGWYRQAPGKERELVAAITWSGVSTSYADSVKGRFTISRDNAKNTVYLKMNSLKPEDTAVYYCNIDPGTLFGDMDSWGQGNQVTVSS | low polyreactivity
28 | QVQLVESGGGLVQAGGSLRLSCAASGRTFKAYAMGWYRQAPGKEREFVAAITKRGGSTYYADSVKGRFTISRDNAKNTVYLQMNSLKPEDTAVYYCAVGLGRYTHTSVPIPSYDYWGQGTQVTVSS | high polyreactivity
29 | QVQLVESGGGLVQAGGSLRLSCAASGSTFPFYAMGWYRQAPGKERELVAAITSGGSTYADSVKGRFTISRDNAKNTVYLQMNSLKPEDTAVYYCAASWPRWCRFGYWGQGTQVTVSS | low polyreactivity
30 | QVQLVESRAGLVQAGGSLRLSCAASGSTRNRNVMGWYRPAPGKERELVAVITYGVGSTYYADSVKGRFTISRDNAKNTVYLQMNSLKPEDTAVYYCNKDPLVFDYWAQGTQVTVSS | low polyreactivity
31 | QVQLVESGGGLVQAGGSLRLSCAASGSTFNVYSMGWYRQAPGKERELVAAIDTGDGSTFYADSVKGRFTISRDNAKNTVYLQMNSLKPEDTAVYYCAAEFWAIVDGDYCGQGTQVTVSS | high polyreactivity
32 | QVQLVESGGGLVQAGGSLRLSCAASGRIFSSNAMGWYRKAPGKEREFVAAINESGGITFYADSVKGRFTISRDNAKNTVYLQLNSLIPEDTAVYYCAKRDYSPWPADGYPYDYDYWGQGTQVTVSS | low polyreactivity
